Measured values published in the supplement of paper PMC7125110.
± gives the standard error. For some of these results: This sample holds only a part of the variants without activity.

B1: glmS ribozyme (parent)
chain: AUAAAAGCGCCAGAACUACAGAAAUGUAGUUGACGAGGAGGAGGUUUAUCGAAUUUUCGGCGGAUGCCUCCAAA

Tests used:
Conditions in all cases: with glucosamine-6-phosphate
glucosamine-6-phosphate [1] = variants of: B1; assay: kcat; higher = faster cleavage; RNA array
How it was run: (§1)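 A hybridised Cy3 probe tracked barcoded ribozyme variants, transcribed in situ by E. coli RNA polymerase on sequenced MiSeq chips, at 37 °C. The variants received 40 μM to 10 mM glucosamine-6-phosphate in HEPES/KCl/Mg(OAc)2 buffer. kobs came from decay fits and kcat and KM from weighted Michaelis–Menten fits.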

glucosamine-6-phosphate [2] = variants of: B1; assay: KM; higher = weaker cofactor use; RNA array
How it was run: as §1

glucosamine-6-phosphate [3] = variants of: B1; assay: self-cleavage kobs at 640 uM GlcN6P; higher = faster cleavage; RNA array
How it was run: as §1

glucosamine-6-phosphate [4] = variants of: B1; assay: self-cleavage kobs at 2500 uM GlcN6P; higher = faster cleavage; RNA array
How it was run: as §1

glucosamine-6-phosphate [5] = variants of: B1; assay: self-cleavage kobs at 10000 uM GlcN6P; higher = faster cleavage; RNA array
How it was run: as §1

glucosamine-6-phosphate [6] = variants of: B1; assay: self-cleavage kobs at 160 uM GlcN6P; higher = faster cleavage; RNA array
How it was run: as §1

glucosamine-6-phosphate [7] = variants of: B1; assay: self-cleavage kobs at 40 uM GlcN6P; higher = faster cleavage; RNA array
How it was run: as §1

Variant	kcat (glucosamine-6-phosphate [1])	KM (glucosamine-6-phosphate [2])	self-cleavage kobs at 640 uM GlcN6P (glucosamine-6-phosphate [3])	self-cleavage kobs at 2500 uM GlcN6P (glucosamine-6-phosphate [4])	self-cleavage kobs at 10000 uM GlcN6P (glucosamine-6-phosphate [5])	self-cleavage kobs at 160 uM GlcN6P (glucosamine-6-phosphate [6])	self-cleavage kobs at 40 uM GlcN6P (glucosamine-6-phosphate [7])
A12G G66C	8.51e-05 ± 6.1e-06 s⁻¹	857 ± 290 µM	4.42e-05 ± 1.9e-05 s⁻¹	5.86e-05 ± 1.3e-05 s⁻¹	8.08e-05 ± 1.3e-05 s⁻¹	–	–
A12G G66A	0.000586 ± 0.00018 s⁻¹	3600 ± 1700 µM	0.000105 ± 1.1e-05 s⁻¹	0.000195 ± 2.3e-05 s⁻¹	0.000496 ± 5.7e-05 s⁻¹	2.09e-05 ± 9.7e-06 s⁻¹	–
G9U C50G	2.48e-05 ± 1.1e-05 s⁻¹	–	–	–	–	–	–
A12U G38A	< 1e-05 s⁻¹	–	–	–	–	–	–
C8U A42U	< 1e-05 s⁻¹	–	< 1e-05 s⁻¹	–	–	–	–
G7A G37C U47A	1.02e-05 ± 2.4e-06 s⁻¹	–	–	–	–	< 1e-05 s⁻¹	–
C10U U47G	< 1e-05 s⁻¹	–	–	–	–	< 1e-05 s⁻¹	–
A12G U30G	8.75e-05 ± 7.1e-06 s⁻¹	1830 ± 510 µM	–	5.48e-05 ± 8.9e-06 s⁻¹	7.28e-05 ± 7.5e-06 s⁻¹	–	< 1e-05 s⁻¹
A12C U65C	0.00043 ± 7.3e-05 s⁻¹	1950 ± 620 µM	0.000102 ± 1.9e-05 s⁻¹	0.000328 ± 8.4e-05 s⁻¹	0.000343 ± 6.2e-05 s⁻¹	–	–
A6U G43U	< 1e-05 s⁻¹	6890 ± 1100 µM	< 1e-05 s⁻¹	–	–	< 1e-05 s⁻¹	< 1e-05 s⁻¹
A12G A14U G32U G60A G66U	< 1e-05 s⁻¹	–	–	–	< 1e-05 s⁻¹	–	–
C11U G40C	0.000197 ± 1.3e-05 s⁻¹	2960 ± 470 µM	3.93e-05 ± 1.6e-05 s⁻¹	8.9e-05 ± 1.4e-05 s⁻¹	0.000153 ± 1.9e-05 s⁻¹	–	–
C10U A33U U54C	4.81e-05 ± 4.1e-06 s⁻¹	3720 ± 750 µM	–	–	3.5e-05 ± 1.5e-05 s⁻¹	–	–
A12C A15G	0.016 ± 0.0031 s⁻¹	2400 ± 600 µM	0.00332 ± 0.0006 s⁻¹	0.00626 ± 0.0015 s⁻¹	0.0142 ± 0.0018 s⁻¹	0.000883 ± 0.00014 s⁻¹	0.000302 ± 3.5e-05 s⁻¹
A12C G43U	5.32e-05 ± 9.5e-07 s⁻¹	1200 ± 86 µM	–	3.6e-05 ± 8e-06 s⁻¹	4.74e-05 ± 9.2e-06 s⁻¹	–	–
A12C U54G	0.0218 ± 0.01 s⁻¹	–	0.00452 ± 0.00083 s⁻¹	0.0102 ± 0.0016 s⁻¹	0.0271 ± 0.0095 s⁻¹	0.0011 ± 0.00016 s⁻¹	0.000492 ± 7.4e-05 s⁻¹
C10A U54A	< 1e-05 s⁻¹	–	–	–	–	–	< 1e-05 s⁻¹

Variant	kcat (glucosamine-6-phosphate [1])	KM (glucosamine-6-phosphate [2])	self-cleavage kobs at 640 uM GlcN6P (glucosamine-6-phosphate [3])	self-cleavage kobs at 2500 uM GlcN6P (glucosamine-6-phosphate [4])	self-cleavage kobs at 10000 uM GlcN6P (glucosamine-6-phosphate [5])	self-cleavage kobs at 160 uM GlcN6P (glucosamine-6-phosphate [6])	self-cleavage kobs at 40 uM GlcN6P (glucosamine-6-phosphate [7])
A12C C70G	0.000232 ± 6.8e-05 s⁻¹	–	0.000119 ± 1.1e-05 s⁻¹	0.000154 ± 1.8e-05 s⁻¹	0.000352 ± 4.1e-05 s⁻¹	7.74e-05 ± 1.7e-05 s⁻¹	–
A12C C70A	0.000198 ± 2.9e-05 s⁻¹	1030 ± 390 µM	6.98e-05 ± 1e-05 s⁻¹	0.000174 ± 1.9e-05 s⁻¹	0.000162 ± 2e-05 s⁻¹	–	–
A12U G13A	0.0015 ± 0.00056 s⁻¹	–	8.57e-05 ± 1.1e-05 s⁻¹	0.000208 ± 3.6e-05 s⁻¹	0.000715 ± 9.5e-05 s⁻¹	–	–
A12C C67A	0.00471 ± 0.0013 s⁻¹	1180 ± 470 µM	0.00125 ± 0.0002 s⁻¹	0.0034 ± 0.00084 s⁻¹	0.00467 ± 0.00054 s⁻¹	0.000456 ± 7.2e-05 s⁻¹	0.000204 ± 1.9e-05 s⁻¹
A6U U54C	0.000261 ± 4.2e-05 s⁻¹	2260 ± 670 µM	5.25e-05 ± 1.2e-05 s⁻¹	0.000165 ± 3.3e-05 s⁻¹	0.000195 ± 4.6e-05 s⁻¹	–	–
A12C A42G	0.0188 ± 0.0076 s⁻¹	–	0.00579 ± 0.0016 s⁻¹	0.0085 ± 0.0026 s⁻¹	0.0248 ± 0.0036 s⁻¹	0.00222 ± 0.00053 s⁻¹	0.00118 ± 0.00019 s⁻¹
A12C A42U	0.000217 ± 1.2e-05 s⁻¹	1230 ± 230 µM	6.67e-05 ± 1.1e-05 s⁻¹	0.00016 ± 2.1e-05 s⁻¹	0.000192 ± 1.2e-05 s⁻¹	3.19e-05 ± 1e-05 s⁻¹	–
A6U G60C C67A	< 1e-05 s⁻¹	–	< 1e-05 s⁻¹	–	< 1e-05 s⁻¹	< 1e-05 s⁻¹	–
A12U U49G	0.00213 ± 0.00037 s⁻¹	2950 ± 780 µM	0.000495 ± 7.3e-05 s⁻¹	0.000912 ± 0.00012 s⁻¹	0.00167 ± 0.00018 s⁻¹	9.35e-05 ± 1.5e-05 s⁻¹	3.38e-05 ± 7.4e-06 s⁻¹
A12G G13U	9.52e-05 ± 1e-06 s⁻¹	1020 ± 43 µM	3.63e-05 ± 8.6e-06 s⁻¹	6.89e-05 ± 1.1e-05 s⁻¹	8.62e-05 ± 7.6e-06 s⁻¹	–	–
C11U C58U	3.64e-05 ± 4.6e-06 s⁻¹	–	–	4.05e-05 ± 1.3e-05 s⁻¹	3.32e-05 ± 7.1e-06 s⁻¹	–	–
C11U C58G	3.35e-05 ± 2.6e-07 s⁻¹	188 ± 18 µM	–	3.13e-05 ± 1e-05 s⁻¹	3.28e-05 ± 7.7e-06 s⁻¹	–	–
C11U G66A	0.000908 ± 0.00021 s⁻¹	2510 ± 1100 µM	0.000205 ± 6e-05 s⁻¹	0.000661 ± 0.00015 s⁻¹	0.000673 ± 0.00012 s⁻¹	–	–
A12G G32U C70U	0.00103 ± 0.00043 s⁻¹	–	0.000285 ± 6.9e-05 s⁻¹	0.000425 ± 9e-05 s⁻¹	0.00121 ± 0.00019 s⁻¹	0.000103 ± 1.9e-05 s⁻¹	–
A12U U69G	0.000139 ± 1.8e-05 s⁻¹	437 ± 200 µM	9.2e-05 ± 1e-05 s⁻¹	0.000109 ± 1e-05 s⁻¹	0.000145 ± 1.5e-05 s⁻¹	2.7e-05 ± 8.8e-06 s⁻¹	2.68e-05 ± 8.8e-06 s⁻¹
G7U C16A G37A A53U C71A	1.25e-05 ± 4.6e-06 s⁻¹	–	–	–	–	–	–
